Data set [1] in a line: dual luciferase Sox2 reporter. The settings on record: glycan lost; control: untreated / control siRNA / scrambled control.
Data set [2] can be described thus: western blot, S2VP10 and L3.6PL. The conditions noted are these: glycan lost; control: untreated cells. Background: In western blotting, separated proteins are transferred to a membrane and probed.
A short description of data set [3]: cycloheximide chase, western blot, endogenous Sox2. The conditions noted are these: glycan lost; control: untreated / scrambled control S2VP10.
Data set [4] can be described thus: western blot, MIA-PACA2. The conditions noted are these: glycan lost; control: wild-type Sox2 overexpression.

For SOX2: OSMI, the “other: transcriptional activity” value in data set [1] was “decreases”. In addition, the expression_or_secretion entry in data set [2] was “decreases”. The degradation_or_half_life entry in data set [3] was “decreases”.
For the substance SOX2: siOGT, the “other: transcriptional activity” value in data set [1] was “decreases”.
As to SOX2: S246A, the expression_or_secretion result in data set [4] was “decreases”.

(Values after article PMC6587167.)
